Data on twelve molecules can be found in patent publication US20090298765A1 (Takeda / Millennium, published 2009).

The chains are these.
B1: des(1)-[D-Tyr2,Ile3,AzaGly7,Arg(Me)9]MS10 (peptide)
peptide: [dY]INSF[azaGly]L[Arg(Me)]F-NH2
notes: also called Compound No. 240
B2: des(1)-[D-Tyr2,Ser3,AzaGly7,Arg(Me)9]MS10 (peptide)
peptide: [dY]SNSF[azaGly]L[Arg(Me)]F-NH2
notes: also called Compound No. 239
B3: [Nar(Me)9]MS10 (peptide)
peptide: YNWNSFGLXF
modifications: Nar(Me)9; C-terminal amide
notes: also called Compound No. 311
B4: des(1-5)-3-(3-Indolyl)propionyl-[AzaGly7,Arg(Me)9]MS10 (peptide)
peptide: {Propanoyl(3-indol-3-yl)}-F[azaGly]L[Arg(Me)]F-NH2
SMILES: CNC(=N)NCCC[C@H](NC(=O)[C@H](CC(C)C)NC(=O)NNC(=O)[C@H](Cc1ccccc1)NC(=O)CCc1c[nH]c2ccccc12)C(=O)N[C@@H](Cc1ccccc1)C(N)=O
B5: [10Ψ,CSNH,D-Tyr1]MS10 (peptide)
peptide: [dY]NWNSFGLRF
modifications: not fully specified (C-terminus); also: C-terminal thioamide (CSNH2)
B6: [Nar9]MS10 (peptide)
peptide: YNWNSFGLXF
modifications: Nar9; C-terminal amide
notes: also called Compound No. 310
B7: des(1-3)-Indole-3-carbonyl-[AzaGly7,Arg(Me)9]MS10 (peptide)
peptide: {indole‑3‑carbonyl}-NSF[azaGly]L[Arg(Me)]F-NH2
notes: also called Compound No. 265
B8: des(1-5)-GuAmb-[AzaGly7,Arg(Me)9]MS10 (peptide)
peptide: GuAmb-F[azaGly]L[Arg(Me)]F-NH2
SMILES: CNC(=N)NCCC[C@H](NC(=O)[C@H](CC(C)C)NC(=O)NNC(=O)[C@H](Cc1ccccc1)NC(=O)c1ccc(CNC(=N)N)cc1)C(=O)N[C@@H](Cc1ccccc1)C(N)=O
B9: [D-Tyr1,AzaGly7,Arg(Me)9,Phe(4F)10]MS10 (peptide)
peptide: [dY]NWNSF[azaGly]L[Arg(Me)][Phe(4-F)]-NH2
notes: also called Compound No. 318
B10: des(1-3)-3-Phenylpropionyl-[AzaGly7,Arg(Me)9]MS10 (peptide)
peptide: Hydrocinnamoyl-NSF[azaGly]L[Arg(Me)]F-NH2
notes: also called Compound No. 269
B11: [D-Tyr1,D-Asn2,Pya(4)3,AzaGly7,Arg(Me)9,Phe(4F)10]MS10 (peptide)
peptide: [dY][dN][4Pal]NSF[azaGly]L[Arg(Me)][Phe(4-F)]-NH2
modifications: N-terminus assumed
SMILES: CNC(=N)NCCC[C@H](NC(=O)[C@H](CC(C)C)NC(=O)NNC(=O)[C@H](Cc1ccccc1)NC(=O)[C@H](CO)NC(=O)[C@H](CC(N)=O)NC(=O)[C@H](Cc1ccncc1)NC(=O)[C@@H](CC(N)=O)NC(=O)[C@H](N)Cc1ccc(O)cc1)C(=O)N[C@@H](Cc1ccc(F)cc1)C(N)=O
notes: also called Compound No. 317
B12: des(1-3)-4-Imidazoleacetyl-[AzaGly7,Arg(Me)9]MS10 (peptide)
peptide: {4‑imidazoleacetyl}-NSF[azaGly]L[Arg(Me)]F-NH2
notes: also called Compound No. 323

Non-standard residues stand in square brackets, D forms with d. No end group written: not given here. *: point of attachment. GuAmb = 4-guanidinomethylbenzoyl, N=C(N)NCc1ccc(C(=O)*)cc1; Propanoyl(3-indol-3-yl) = O=C(CCc1c[nH]c2ccccc12)*; indole‑3‑carbonyl = O=C(c1c[nH]c2ccccc12)*; Phe(4-F) = N[C@@H](Cc1ccc(F)cc1)C(=O)O; Arg(Me) = CNC(=N)NCCC[C@H](N)C(=O)O; Hydrocinnamoyl = O=C(CCc1ccccc1)*; 4Pal = N[C@@H](Cc1ccncc1)C(=O)O; azaGly = NNC(=O)O

The target of one test is T1, human OT7T175 (metastin receptor) (human, UniProt Q969F8 1-398). Put plainly: cell-based or functional assay.
T1 sequence (Q969F8 whole entry L364H): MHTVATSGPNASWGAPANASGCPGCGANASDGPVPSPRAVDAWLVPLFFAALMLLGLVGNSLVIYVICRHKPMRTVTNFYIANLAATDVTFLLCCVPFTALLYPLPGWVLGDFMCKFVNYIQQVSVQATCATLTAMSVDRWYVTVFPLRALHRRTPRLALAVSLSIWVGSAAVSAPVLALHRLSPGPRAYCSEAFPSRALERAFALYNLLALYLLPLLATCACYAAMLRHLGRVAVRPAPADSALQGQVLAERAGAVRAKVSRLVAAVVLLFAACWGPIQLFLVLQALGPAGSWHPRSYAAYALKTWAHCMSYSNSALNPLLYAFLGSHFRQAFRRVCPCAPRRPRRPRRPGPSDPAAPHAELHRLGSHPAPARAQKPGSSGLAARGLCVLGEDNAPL
For the molecule B1, the “Ca ion level-increasing activity (FLIPR, 40 s)” value was 4.9 EC50/MS10 EC50.
Still for that read-out and setting: to B2 belongs 6.7 EC50/MS10 EC50; to B3, 6.2 EC50/MS10 EC50; to B4, 5.9 EC50/MS10 EC50.
Still for that read-out and setting: the same measure for B5: 1.5 EC50/MS10 EC50.
On the same count and under the same terms, the same measure for B6: 2 EC50/MS10 EC50.
As for B7, the “Ca ion level-increasing activity (FLIPR, 40 s)” value amounted to 4.4 EC50/MS10 EC50.
Still for that read-out and setting: the same measure for B8: 4.9 EC50/MS10 EC50; for B9: 2.9 EC50/MS10 EC50.
On the same count and under the same terms, the same measure for B10: 3.4 EC50/MS10 EC50.

In the next test the target is T1, human OT7T175 (metastin receptor). Put plainly: competition with Cy-5 metastin (40-54) on hOT7T175-CHO cells, FMAT. The method, then: hOT7T175-Expressed CHO cells were cultured in MEM-α medium (nucleic acid-free) containing 10% dialyzed serum. The medium was removed and the adhered cells were washed with PBS. Then, PBS containing 5 mM EDTA was added and the cells were scraped from a flask with a cell scraper.
To each well of a 96-Well Black Clear Bottom Microplate (Applied Biosystems, Inc.), 10 μL of assay buffer containing 1% dimethylsulfoxide was added to examine total binding, 10 μL of 10 μM non-labeled peptide (having the same amino acid sequence as that of labeled one) solution diluted with assay buffer to examine non-specific binding, and 10 μL of a test compound diluted with assay buffer to examine a binding inhibition activity of the test compound, and furthermore, 90 μL each of the cell suspension was dispensed to each well. […] Specific binding is calculated as non-specific binding subtracted from total binding. The binding inhibition activity of a test compound is shown by a ratio of the value obtained by subtracting a measured value in presence of a test compound from the total binding to the specific binding.
Molecule B11 returned an IC50 of 2.1 nM.
On the same count and under the same terms, the same measure for B1: 17 nM; for B2: 120 nM.
Still for that read-out and setting: to B3 belongs 470 nM; to B6, 310 nM; to B12, 280 nM.
B7 returned an IC50 of 95 nM.
Same read-out and setting: to B9 belongs 0.99 nM; to B10, 470 nM.

A further test has the same target. The experiment in a line: cell-based or functional assay. This is another data set of the same source.
As to B11, the “Ca ion level-increasing activity (FLIPR)” value is 1 x Metastin (1-54).
Still for that read-out and setting: to B3 belongs 1 x Metastin (1-54); to B4, 2 x Metastin (1-54); to B6, 3 x Metastin (1-54).
Still for that read-out and setting: the same measure for B12: 1 x Metastin (1-54); for B7: 3 x Metastin (1-54).
Turning to B8, the “Ca ion level-increasing activity (FLIPR)” value was 2 x Metastin (1-54).
Still for that read-out and setting: to B10 belongs 3 x Metastin (1-54).

By IC50 is commonly meant the concentration that inhibits the measured activity by half. Read a high IC50 as a need for much substance.
